This data set addresses TMED6 (Homo sapiens, UniProt Q8WW62 Q8WW62:22-240). The data set can be described thus: competition; recombinant TMED6 (aptamer/protein molar ratio 1/1-1/10) dose-dependently inhibits aptamer staining of human pancreas sections. To be noted: tags: HuProt v2.0 protein array (Arrayit); label: Cy3. As to the method:
To identify the target of aptamer 1-717, protein arrays (HuProt™v2.0, Arrayit) were used. These protein arrays contains more than 19,000 human recombinant proteins allowing, by informatics analysis, the identification of the cognate protein of antibodies, peptides, or protein. This technology has been adapted for the identification of aptamer's ligands. Briefly, pre-blocked arrays were hybridized with 1 μg of cy3 labeled 1-717 or m12-3773 in blocking buffer for 30′ at RT. Arrays were washed, read in triplicate on a Genepix microarray reader and analyzed by an ad hoc generated software. This software 1) acquires the data from the gpr file, 2) adds a description column with (GeneID, Control, blank, ND), 2) use a optimized “plotArray” function modified in several points (the script was implemented for a specific protein array, plus some problem in UTF file format), 3) performs a quality control that includes a microarray image rebuilding the generation of MA plots, 4) normalized the data and substracts the background; and 5) analyze the differential expression between arrays via graphs of p-value distribution, volcano plot, and analysis of significant modulation by t-test. This analysis proposed TMED6 (NM144676.1, protein id Q8WW62) as the most likely ligand of aptamer 1-717. […] Images were acquired by a fluorescence microscope and aptamer binding quantified by cellprofiler.

Sequence of TMED6 (Q8WW62 22-240, one chain of several): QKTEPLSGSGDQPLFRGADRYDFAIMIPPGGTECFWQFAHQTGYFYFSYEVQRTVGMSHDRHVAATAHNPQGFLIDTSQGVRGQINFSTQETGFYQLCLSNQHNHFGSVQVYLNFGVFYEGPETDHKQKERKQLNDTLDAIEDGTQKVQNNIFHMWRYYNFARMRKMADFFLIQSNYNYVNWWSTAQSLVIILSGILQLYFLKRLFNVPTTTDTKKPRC

B1: 1-717 (ssRNA)
RNA: GGAGGACGAUGCGGUAAUUCUCAGGAGGUGCGGAACGGGAUAUGGAUUGUUCGCCAGACGACUCGCUGAGGAUCCGAGA
modifications: 2'-F pyrimidines (2'-F-dCTP, 2'-F-dUTP in selection transcription)
In the case of B1, the binding result is “binds”.

For the origin of these results see patent US20210139907, “MATERIALS AND METHODS FOR THE DELIVERY OF THERAPEUTIC NUCLEIC ACIDS TO TISSUES” (UNIVERSITY OF MIAMI, published 2021).
